Reference: US20160024159A1

Assays:
Test in all cases: cell-based or functional assay
[1] = biological target: human voltage-gated sodium channel Nav1.7 (human) (UniProt Q15858)
[2] = biological target: human voltage-gated sodium channel Nav1.4 (human) (UniProt P35499)
[3] = biological target: human voltage-gated sodium channel Nav1.3 (human) (UniProt Q9NY46)
[4] = biological target: human voltage-gated sodium channel Nav1.5 (human) (UniProt Q14524)
[5] = biological target: TTX-sensitive Nav channels in mouse DRG neurons
[6] = biological target: human Nav1.7 voltage-gated sodium channel (human) (UniProt Q15858)
Chain of human Nav1.7 voltage-gated sodium channel (human) (Q15858 whole entry): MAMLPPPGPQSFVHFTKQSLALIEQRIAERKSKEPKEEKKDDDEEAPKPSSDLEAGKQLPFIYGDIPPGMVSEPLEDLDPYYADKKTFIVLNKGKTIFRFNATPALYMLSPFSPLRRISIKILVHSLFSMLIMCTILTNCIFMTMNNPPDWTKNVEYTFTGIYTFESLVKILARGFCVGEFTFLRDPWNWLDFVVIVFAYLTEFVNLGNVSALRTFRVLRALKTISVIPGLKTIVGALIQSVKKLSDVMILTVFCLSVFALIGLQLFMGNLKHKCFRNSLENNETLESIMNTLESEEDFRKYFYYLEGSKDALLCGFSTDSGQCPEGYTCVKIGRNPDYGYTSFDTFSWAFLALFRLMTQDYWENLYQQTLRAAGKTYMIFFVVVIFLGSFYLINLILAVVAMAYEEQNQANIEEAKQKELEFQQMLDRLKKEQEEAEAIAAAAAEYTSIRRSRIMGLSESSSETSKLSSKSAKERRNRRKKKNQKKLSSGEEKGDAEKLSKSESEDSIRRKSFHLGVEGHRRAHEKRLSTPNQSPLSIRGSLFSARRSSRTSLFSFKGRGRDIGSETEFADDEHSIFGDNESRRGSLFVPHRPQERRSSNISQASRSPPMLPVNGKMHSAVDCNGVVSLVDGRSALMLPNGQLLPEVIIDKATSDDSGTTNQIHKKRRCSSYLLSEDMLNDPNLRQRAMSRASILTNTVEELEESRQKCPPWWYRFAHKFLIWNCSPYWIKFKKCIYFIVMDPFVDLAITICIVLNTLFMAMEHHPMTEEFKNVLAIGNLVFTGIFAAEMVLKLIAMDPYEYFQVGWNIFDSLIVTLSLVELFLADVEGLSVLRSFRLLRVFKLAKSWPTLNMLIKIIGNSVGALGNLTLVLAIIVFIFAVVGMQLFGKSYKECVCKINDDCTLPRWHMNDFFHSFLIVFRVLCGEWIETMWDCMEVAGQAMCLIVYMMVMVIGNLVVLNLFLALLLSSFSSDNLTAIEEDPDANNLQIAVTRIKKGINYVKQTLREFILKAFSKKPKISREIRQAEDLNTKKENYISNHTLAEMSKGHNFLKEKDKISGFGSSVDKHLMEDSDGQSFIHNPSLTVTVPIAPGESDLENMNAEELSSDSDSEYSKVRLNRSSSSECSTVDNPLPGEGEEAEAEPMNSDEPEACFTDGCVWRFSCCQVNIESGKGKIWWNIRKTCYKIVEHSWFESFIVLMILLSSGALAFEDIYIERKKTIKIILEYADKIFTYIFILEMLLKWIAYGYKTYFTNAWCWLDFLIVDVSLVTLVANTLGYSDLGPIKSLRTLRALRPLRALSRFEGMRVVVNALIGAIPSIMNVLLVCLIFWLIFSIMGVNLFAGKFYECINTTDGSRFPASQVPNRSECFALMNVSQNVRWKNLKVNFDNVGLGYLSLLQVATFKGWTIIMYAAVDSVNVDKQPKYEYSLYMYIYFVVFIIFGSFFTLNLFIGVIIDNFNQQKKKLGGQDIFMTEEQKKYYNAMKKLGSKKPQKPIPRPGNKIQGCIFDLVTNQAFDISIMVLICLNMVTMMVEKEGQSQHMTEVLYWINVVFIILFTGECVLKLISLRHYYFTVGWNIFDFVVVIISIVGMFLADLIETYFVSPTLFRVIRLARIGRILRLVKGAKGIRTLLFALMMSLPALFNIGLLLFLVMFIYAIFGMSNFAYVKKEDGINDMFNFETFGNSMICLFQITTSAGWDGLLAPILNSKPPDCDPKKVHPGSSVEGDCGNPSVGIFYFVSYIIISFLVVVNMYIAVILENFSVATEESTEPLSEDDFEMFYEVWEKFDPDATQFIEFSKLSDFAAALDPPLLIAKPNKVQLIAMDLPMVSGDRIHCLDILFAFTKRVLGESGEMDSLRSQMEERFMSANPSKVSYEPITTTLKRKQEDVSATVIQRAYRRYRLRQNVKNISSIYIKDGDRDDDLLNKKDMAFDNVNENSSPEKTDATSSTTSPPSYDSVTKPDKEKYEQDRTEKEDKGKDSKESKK

Chain of human voltage-gated sodium channel Nav1.7 (human) (Q15858 whole entry): as above
Chain of human voltage-gated sodium channel Nav1.5 (human) (Q14524 whole entry): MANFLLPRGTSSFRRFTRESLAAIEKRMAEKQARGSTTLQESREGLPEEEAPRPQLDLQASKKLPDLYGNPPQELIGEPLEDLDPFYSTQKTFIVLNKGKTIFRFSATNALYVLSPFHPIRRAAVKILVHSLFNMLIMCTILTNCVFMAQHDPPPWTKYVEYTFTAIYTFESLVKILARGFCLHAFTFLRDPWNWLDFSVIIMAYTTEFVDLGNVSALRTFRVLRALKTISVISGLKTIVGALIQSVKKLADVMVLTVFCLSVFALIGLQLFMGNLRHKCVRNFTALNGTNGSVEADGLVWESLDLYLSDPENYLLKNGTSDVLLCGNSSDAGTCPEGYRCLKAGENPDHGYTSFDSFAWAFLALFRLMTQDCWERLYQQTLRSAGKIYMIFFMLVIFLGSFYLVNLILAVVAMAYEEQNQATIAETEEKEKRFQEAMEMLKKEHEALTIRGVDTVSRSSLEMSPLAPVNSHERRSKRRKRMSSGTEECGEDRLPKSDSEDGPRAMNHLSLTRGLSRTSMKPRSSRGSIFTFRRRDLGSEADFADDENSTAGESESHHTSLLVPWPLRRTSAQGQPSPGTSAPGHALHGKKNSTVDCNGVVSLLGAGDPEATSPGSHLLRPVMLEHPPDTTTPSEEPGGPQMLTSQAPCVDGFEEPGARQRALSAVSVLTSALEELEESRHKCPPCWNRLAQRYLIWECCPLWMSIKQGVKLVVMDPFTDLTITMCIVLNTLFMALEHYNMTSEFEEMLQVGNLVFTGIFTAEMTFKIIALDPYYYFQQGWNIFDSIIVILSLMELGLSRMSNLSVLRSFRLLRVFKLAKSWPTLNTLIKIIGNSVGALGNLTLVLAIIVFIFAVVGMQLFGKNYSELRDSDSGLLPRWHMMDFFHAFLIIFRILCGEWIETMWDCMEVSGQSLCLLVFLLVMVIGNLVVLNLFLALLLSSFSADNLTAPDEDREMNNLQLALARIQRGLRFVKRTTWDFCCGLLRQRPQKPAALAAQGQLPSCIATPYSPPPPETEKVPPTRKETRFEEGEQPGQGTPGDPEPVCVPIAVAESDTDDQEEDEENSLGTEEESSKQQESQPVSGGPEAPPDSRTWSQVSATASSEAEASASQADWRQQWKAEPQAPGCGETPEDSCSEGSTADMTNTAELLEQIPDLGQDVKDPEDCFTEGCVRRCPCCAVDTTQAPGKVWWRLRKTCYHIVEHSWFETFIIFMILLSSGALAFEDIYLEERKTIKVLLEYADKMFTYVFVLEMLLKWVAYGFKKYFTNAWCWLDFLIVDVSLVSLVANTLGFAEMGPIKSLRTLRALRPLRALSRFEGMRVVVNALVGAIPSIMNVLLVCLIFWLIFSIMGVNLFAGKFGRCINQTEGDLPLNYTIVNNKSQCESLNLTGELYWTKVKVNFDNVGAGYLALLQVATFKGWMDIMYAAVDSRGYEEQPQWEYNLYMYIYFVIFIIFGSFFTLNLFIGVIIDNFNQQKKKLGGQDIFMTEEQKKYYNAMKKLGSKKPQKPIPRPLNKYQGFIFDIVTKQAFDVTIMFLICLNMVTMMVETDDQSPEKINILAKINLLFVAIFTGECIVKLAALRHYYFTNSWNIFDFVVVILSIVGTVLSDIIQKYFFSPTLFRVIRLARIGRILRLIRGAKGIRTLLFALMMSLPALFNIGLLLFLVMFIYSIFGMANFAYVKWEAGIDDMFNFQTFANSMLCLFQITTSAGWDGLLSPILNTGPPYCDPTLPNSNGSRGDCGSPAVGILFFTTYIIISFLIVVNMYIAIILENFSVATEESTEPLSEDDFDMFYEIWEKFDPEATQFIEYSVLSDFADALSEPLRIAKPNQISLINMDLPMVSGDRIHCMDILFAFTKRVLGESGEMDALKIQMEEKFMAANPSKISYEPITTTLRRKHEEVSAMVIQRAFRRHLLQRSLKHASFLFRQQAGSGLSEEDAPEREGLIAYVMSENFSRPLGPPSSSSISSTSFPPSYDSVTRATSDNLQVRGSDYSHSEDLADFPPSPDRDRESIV

“CyA-[Nle6; Val8; Lys17; Glu28]JzTx-V(1-29) (peptide)” showed a PX hNav1.7 Tonic IC50 [1] of 0.0266 µM.

For “[Nle6;Pra11;Glu20;Trp29]JzTx-V(1-29) (peptide)”, the IC50, IonWorks Quattro electrophysiology [1] was 0.026 µM.

Substance “[Nva7;Glu20;Tyr28]JzTx-V(1-29) (peptide)” has an IC50, IonWorks Quattro electrophysiology [2] of over 7 µM, an IC50, IonWorks Quattro electrophysiology [3] of over 7 µM and an IC50, IonWorks Quattro electrophysiology [4] of over 7 µM. For the same substance, the IC50, IonWorks Quattro electrophysiology [1] was 4.5 µM.

“Pra-[Nle6;Glu12,28]JzTx-V(1-29) (peptide)” was tested, and the WCPC Mean IC50, partially inactivated [5] was 0.144 µM.

Substance “[Cit7;Glu20;Tyr28]JzTx-V(1-29) (peptide)” has an IC50, IonWorks Quattro electrophysiology [2] of over 7 µM, an IC50, IonWorks Quattro electrophysiology [3] of over 7 µM and an IC50, IonWorks Quattro electrophysiology [4] of over 7 µM. For the same substance, the IC50, IonWorks Quattro electrophysiology [1] was 5.8 µM.

“Pra-[Nle6;Glu14,28]JzTx-V(1-29) (peptide)” gave a WCPC Mean IC50, partially inactivated [5] of 0.0998 µM.

Work on “Pra-[Nle6;5-BrW24;Glu28]JzTx-V(1-29) (peptide)” yielded a WCPC Mean IC50, partially inactivated [6] of 0.00013 µM and a WCPC Mean IC50, partially inactivated [5] of 0.0038 µM.
